B1: V021 (antibody, V domains shown)
VH: QVQLQESGPGLVKPSQTLSLTCTVSGGSISSGSYYWSWIRQPVGKGLEWIGRIYTSGSTNYNPSLKSRVTISVDTSKNQFSLELSSVTAADRAVYYCARESSPASIPVRGVIWWFDPWGQGTLVTVSS
VL: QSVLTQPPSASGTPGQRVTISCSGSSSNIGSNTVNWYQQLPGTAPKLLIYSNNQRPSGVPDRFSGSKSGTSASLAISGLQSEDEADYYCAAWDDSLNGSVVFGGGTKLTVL
notes: IgG; donor BRA13
B2: V052 (antibody, V domains shown)
VH: EVQLVESGGGLVQPGGSLRLSCAASGFTVSSKYMNWVRQAPGKGLEWVSVIYIGGSTDYADSVKGRFTISRDNSKNTLYLQMNSLRVEDTAVYYCARDGWDYELVFWGQGTLVTVSS
VL: DIQMTQSPSSLSASVGDRVTITCRASQGIRNDLGWYQQKPGKAPKRLIYAASSLQSGVPSRFSGSGSGTEFTLTISSLQPEDFATYYCLQHNSYPRWTFGQGTKVEIK
notes: IgG; donor BRA15
B3: V065 (antibody, V domains shown)
VH: QVQLVQSGAEVKKPGASVKVSCKASGYTFTSYGISWVRQAPGQGLEWMGWINTDNGNTKNAQKVQGRVTMTTDTSTSTAYMELRSLRSDDTAVYYCARGGTVGAPPIEYWGQGTLVTVSS
VL: QSALTQPASVSGSPGQSITFSCTGTSSDVGGYNYVSWYQQYPGKAPKLLIYDVTNRPSGVSDRFSGSKSGNTASLTIFGLQAEDEADYYCSSFTSSNTRVFGTGTKVTVL
notes: IgG; donor BRA15

What was measured:
[1] = biological target: T1, SARS-CoV-2 Wuhan-Hu-1 RBD (SARS-CoV-2 Wuhan-Hu-1, UniProt P0DTC2); test: ELISA; settings: both partners purified
[2] = biological target: T1, SARS-CoV-2 Wuhan-Hu-1 RBD; test: BLI; settings: both partners purified

Binder | binding result [1] | binding result [2]
B1 | no binding | –
B2 | – | no binding (tested: 100 µg/ml RBD)
B3 | – | no binding (tested: 100 µg/ml RBD)
